Experimental data: patent US6649168B2, “Pharmaceutical compositions comprising TGF-beta” (Novartis AG, priority 1999, dated 2003)

Columns and labels:
[1] = Fluorescence adsorption study (intrinsic tryptophan fluorescence) of binding to cuvette walls; type: physicochemical; conditions: solution of TGF-β (1 μg/ml) in water, 25° C.
Source text: We have also developed an analytical method suitable for determining suitable concentrations of TGF-β, especially TGF-β3. When adsorption of a fluorescent molecule (protein) occurs to the cuvette walls the concentration of the molecule in the solution decreases. This change in concentration is monitored by changes (reduction) in the fluorescence intensity. With optimized slits in the excitation and emission monochromators the excitation beam is focused in a small region in the middle of the cuvette and the emission is collected also preferentially from the same region. […] In these conditions the fluorescence intensity is proportional to the concentration of the molecules in the aqueous solution (monitored in the middle of the cuvette). If binding occurs a decrease in the fluorescence intensity is observed. For TGF-β the intrinsic tryptophan fluorescence is used in the adsorption studies. To characterize an adsorption process the percentage from the total TGF-β in the cuvette which bound to the walls in a given time interval, e.g. 25 minutes, is measured. Fluorescence measurements are performed with a Spex Fluorolog® or a Spex Fluoromax® spectrophotometers with a stirred attachment in the cell holder at 25° C. Tryptophan fluorescence is excited at 280 nm and emission monitored at 340 nm. […]

[2] = tested on: cranial bone defect; test: Rabbit cranial defect model, bony filling by quantitative radiography; type: in vivo
Method: (§1) The in vivo performance of the pharmaceutical compositions of the present invention may be tested on horses (wound healing), pigs (oral mucositis inhibition), rabbits e.g. with the rabbit cranial defect model (induction of repairing of bone defects), and femal mice (induction of angiogenesis).
Bone disks removed for creation of the defect served as controls for the extent of bone regeneration. After an eight week healing period the bony filling of the defects was determined by quantitative radiography. The total defect area corresponded to 113320.2 pixels and was taken as 100% for further calculations. Accordingly, complete regeneration corresponded to a value of 11.3×10^4 pixels.

[3] = tested on: vascularization; test: Mouse subcutaneous model (induction of angiogenesis); type: in vivo
Source text: as §1

[4] = Aggregation by 90°-light scattering; type: physicochemical; conditions: 10 mM calcium chloride or 10 mM calcium phosphate, and 20% isopropanol or ethanol; increasing TGF-β3 concentration up to 60 μg/ml
Method: Aggregation of TGF-β3 in different aqueous conditions is studied using 90°-lightscattering. Using the same wavelength for excitation and emission, e.g. excitation and emission wavelength is 560 nm, a Spectrofluorimeter is used to detect aggregation events by measuring the 90°-light scatter. In this method a small aliquot of TGF-β3 stock solution is added in the fluorescence cuvette. If aggregation takes place an increase in the 90°-light scatter intensity is observed.
A composition comprising 10 mM calcium chloride or 10 mM calcium phosphate, and 20% isopropanol or ethanol is prepared.

[5] = Chemical stability of lyophilized formulation, by-products by capillary zone electrophoresis; type: physicochemical; conditions: in the absence of CaCl2
Method: The chemical stability of lyophilized formulation in vials containing TGF-β3, 5.881 mg of CaCl2 and 25 mg of mannitol have been tested. The vials are solubilized to obtain TGF-β3 solutions of 0.1 mg/ml and 0.25 mg/ml. TGF-β3 by-products (related substances) are determined by capillary zone electrophoresis. […] There is no increase in the TGF-β3 by-products after 6 month incubation at 40° C. In comparison, in the absence of CaCl2 the chemical degradation is substantial.

Substance: TGF-β
- binding to plastic, quartz and siliconised quartz cuvettes [1]: bind strongly

Substance: TGF-β3: 25 kD homodimeric, disulfide-linked protein composed of two 112 amino acid polypeptides
- bone formation (in words) [2]: strong bone formation
- vascularization (in words) [3]: strong vascularization
- aggregation (90°-light scatter intensity) [4]: No aggregation
- chemical degradation [5]: substantial
